The results in this text go back to patent US20200299384A1.

B1: WBP3311_2.400.5 (antibody, V domains shown)
VH: QVQLQQSGPELVNPGASVKISCKASGYSFTNYYLHWVKQRPGQGLEWIGWIFPESDNTKYNEKLKGKATLTADTSSDTAYMHLSSLTFEDSAVYFCARDSVGNYFFDFWGQGTTLTVSS
VL: DIVMSQSPSSLAVSAGEKVTMRCKSSQSLVNNRTRKNYLAWYQQKPGQPPKLLIYWASTRESGVPDRFTGSGSGTDFTLTISSVQAEDLAVYYCAQSFILRTFGGGTKLEIK
B2: WBP3311_2.482.5 (antibody, V domains shown)
VH: QVQLQQSGPELVKPGSSVKISCKPSGYTFTTYYIHWVKQRPGQGLEWIGWIFPGSDNIKYNENFKDKATLTADTSSSTAYMQLSSLTSEDSAVYFCARDSVSRYYFDYWGQGTILTVSS
VL: B1 VL with R22S, N32D, Q48L, P49S
B3: WBP3311_2.306.4 (antibody, IgG2b, V domains shown)
VH: QVQLQQSGPELVKPGASVRISCKASGFAFTDYYIHWVKQRPGQGLEWIGWISPGNVNTKYNENFKGRATLTADLSSSTAYMQLSSLTSEDSAVYFCARDGYSLYYFDYWGQGTTLTVSS
VL: DIVMSQSPSSLTVSAGEKVTMSCKSSQSLLNSRTRKNYLAWYQQKPGQSPKLLIYWASTRQSGVPDRFTGSGSGTAFTLTISGVQAEDLAVYFCTQSHTLRTFGGGTKLEIK
B4: WBP331_2.488.33 (antibody, V domains shown)
VH: QVQLQQSGPELVKPGTSVKISCKASGFSFTNYYIHWVKQRPGQGPEWIGWIFPGTVNTKYNEKFKGKATLTADTSSNTAFMQLSSLTSADSAVYFCARDSVGIYYFDFWGLGTTLTVSS
VL: B1 VL with M21V, R22S, V30L, P49S, A95T
B5: WBP3311_2.383.47 (antibody, V domains shown)
VH: QVQLQQSGPELVKPGASVRISCKTSGFTFTNYYIHWVIQRPGQGLEWIGWISPENGNTKYNENFQDKATLTADISSSTAYMHLSSLTSEDSAVYFCARDGYSLYYFDYWGQGTTLTVSS
VL: B3 VL with T59I, Q61V, A76T, F93Y
B6: WBP3311_2.844.8 (antibody, V domains shown)
VH: B3 VH
VL: B3 VL with Q61E

Residue numbers refer to the chain shown, from its start.

Sequence of mouse CD3epsilon protein (mouse) (P22646 22-108 limits assumed): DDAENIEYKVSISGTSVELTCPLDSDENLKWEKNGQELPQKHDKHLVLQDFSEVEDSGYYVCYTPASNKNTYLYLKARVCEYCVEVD

The experiment has as its target mouse CD3epsilon protein (mouse) (UniProt P22646). In words: ELISA, antigen coated on plate. A general note: An ELISA detects its analyte on a solid surface through an enzyme-linked reagent.
The molecule B1 displayed an ELISA A450 of 0.709 A450.
The same measure for B2: 0.61 A450; for B3: 0.711 A450; for B4: 0.607 A450.
Molecule B5 displayed an ELISA A450 of 0.666 A450.
B6 came in with an ELISA A450 of 0.6 A450.
